Molecular target: dCas9-24XGP41 (Streptococcus pyogenes serotype M1) (UniProt Q99ZW2)
Assay: cell-based or functional assay

Substance: NbGP41-sfGFP-VP64-GB1 (from UniProt P06654 228-282) (VHH)
- expression of CLV3 in homozygous Setaria MoonTag lines against wild-type ME34 (RT-qPCR): 100 fold

From patent publication US20250002926A1
